For 3 molecules, percent of cells positive for SIRPa-biotin (quadrant Q2) in the presence of the antibody, binding result and IC50 results are on record in patent US20200385465A1 (SHANGHAI NOVAMAB BIOPHARMACEUTICALS, published 2020).

The target of test [1] is T1, human full-length CD47 protein (human, UniProt Q08722 19-323).
T1 construct: whole, on cells; also called CD47 stably transferred cells; CD47 on the surface of erythrocyte
Briefly: flow cytometry blocking assay, antibody together with hSIRPa (ECD)-Fc-Biotin on CD47 stable cells, SA-PE detection.

Test [2] deals with T1, human full-length CD47 protein. The test is described as follows: flow cytometry blocking assay, antibody together with 5 ug hSIRPa (ECD)-Fc-Biotin on hCD47 stable cells, SA-PE detection.
Test [3] addresses T2, CD47 (rat), coated antigen protein (rat, UniProt P97829 19-140, limits assumed).
T2 construct: also called rat CD47; murine-derived CD47
T2 sequence (looked up): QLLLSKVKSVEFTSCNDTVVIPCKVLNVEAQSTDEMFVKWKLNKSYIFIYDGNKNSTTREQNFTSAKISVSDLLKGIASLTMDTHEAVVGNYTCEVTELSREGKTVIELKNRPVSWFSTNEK
The test is described as follows: ELISA, coated antigen, anti-HA and alkaline phosphatase detection. (In general: ELISA stands for enzyme-linked immunosorbent assay.)
Method: (§1) The specificity of the single domain antibody was determined based on the absorption value.

Test [4] concerns the target T3, CD47 (mouse), coated antigen protein (mouse, UniProt Q61735 19-140, limits assumed).
T3 construct: also called mouse CD47; murine-derived CD47
T3 sequence (looked up): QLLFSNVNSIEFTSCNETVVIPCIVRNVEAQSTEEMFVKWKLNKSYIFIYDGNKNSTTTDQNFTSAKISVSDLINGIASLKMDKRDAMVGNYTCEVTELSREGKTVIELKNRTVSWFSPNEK
Described as above.
Method: as §1

Test [5] deals with T1, human full-length CD47 protein. The test is described as follows: competition flow cytometry on CD47 stably transfected cells, antibody titrated against 5 µg hSIRPa (ECD)-Fc-Biotin.
Method: 100 uL was added in each sample, and a negative control (hIgG4) was set at the same time. […] (2) The cells were washed twice with PBS, SA-PE of eBioscience was added. It was incubated for 20 min at 4° C., and the cells were washed twice with PBS and then detected by flow cytometry (BD FACS Calibur), using graphpad prism 6 software for data processing.

With negative control antibody, the percent of cells positive for SIRPa-biotin (quadrant Q2) in the presence of the antibody in test [1] worked out at 97.3%. The percent of cells positive for SIRPa-biotin (quadrant Q2) in the presence of the antibody at 1ug/ml in test [2] amounted to 97.2%.

B1: humanized CD47 single domain antibody (Nb1902) expressed from E. coli vector pMECS (VHH)
VHH: QVQLQESGGGLVQPGGSLRLSCAASGYAYTSDCMGWFRQTPGKGLEGVALIYTPGNSTNYADSVKGRFTISQDNSKSTVYLQMNSLRAEDTAMYYCAARRGACSLRLPFFYWGQGTLVTVSS
notes: also called humanized single domain antibody; not shown: C-terminal tag stretch from the pMECS vector (the HA tag used for detection and any other vector-encoded tag)
Regarding B1, the binding result in test [3] and in test [4] was “no binding” throughout.

B2: control antibody B6H12 (antibody)
chain: EVQLVESGGDLVKPGGSLKLSCAASGFTFSGYGMSWVRQTPDKRLEWVATITSGGTYTYYPDSVKGRFTISRDNAKNTLYLQIDSLKSEDTAIYFCARSLAGNAMDYWGQGTSVTVSSGGGGSGGGGSGGGGSDIVMTQSPATLSVTPGDRVSLSCRASQTISDYLHWYQQKSHESPRLLIKFASQSISGIPSRFSGSGSGSDFTLSINSVEPEDVGVYYCQNGHGFPRTFGGGTKLEIK
As usually defined, the IC50 is the concentration at which inhibition is half-maximal. Higher therefore signals lower potency. Molecule B2 displayed an IC50 in test [5] of 12.3 µg/mL.
